Test results reported in article PMC3702382 (Biochemistry, 2013).

Molecular target: the molecule itself
Test: TOXCAT

Protein | CAT activity, % of WT
NRASLALTLLLLAILVWLNYSLWFGILIN (domain or fragment) [FtsB transmembrane domain TOXCAT construct, Gln 16 to Asn] | 67%
NRASLALTLLLLAILVWLMYSLWFGILIN (domain or fragment) [FtsB transmembrane domain TOXCAT construct, Gln 16 to Met] | 22 % of WT
